experiment: soluble fraction after stress (log2 fold change); higher = more stays soluble; pooled small domains, quantitative proteomics; conditions: stress: pH 4
Outline: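 With high-throughput quantitative proteomics, pooled custom libraries of small protein domains were measured after pH 4 stress. Each domain's soluble amount after the stress gives a fold change taken as aggregation propensity. Higher log2 values mean more of the domain stayed soluble.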

Sequence	soluble fraction (log2)
HMQQNDMTELRALAEKIISENDSVINDYKSGQGSALQFLIGQAMKETKGSANPQVISEIFTDLL	-0.548
HMLNMSVYDKQLLRAVENNPFISQRELARELHWNVDRVKYYMKKWKDKGGLRHVGSSHKGYWEVLVRIEEK	-0.0578
HMSSVVVARTWTDTTGDFKVEAELLGVEGGLVRLKKEDGTVLSVPIAKLSTADRTFLQENQP	0.22
HMYAGTVTQVKNNKVMLEFDGETVNVGDQFFILNSDGKKVAIVEITAAKNKKALANVLKGKAVVDGTTQAK	-0.404
HMQTGRREALEAQLRETGGEAMLARLREIDPEAAARLHPADEKRVIRALEVYEETGKTITQHNLETKAVPP	-0.0698
HMEDKQRRMGELVALLNRAAYAYYTKDEPIMADVQYDRLYDELLSLEKETGVQMADSPTHRV	-0.871
HMGIQQNHMTLHARSVASSANVPAEHFDTLVEKLIESGDIKVWKAREILMNLSRQHEEILDES	-0.365
HMSKYERVYTGSEINVNHLKSQLEDAGISSVVRNDHESAIRAGFGSDYDRGVLLFVEKDNLLRAKHIIEKT	0.0771
HMRNPLYAQVADYVMQQIAAGTYRPHQAIPTEWQLAKKLEVSQGTVRKGLDELVFKQILYRQQGVGTFVAD	0.0353
HMKGAADPAIKQKVLDYLDTVEKAKSKEIAKAISEEKSAVDLAVKELAFEDKVEYLYITTTFVALKGKVA	-0.865
HMVNIAVMTVSDTRTEADDKSGSLLVSKIEGDGHVLADRAIITDDVPRIIAKLKEWIESPQVDVVVT	-0.606
HMPTYEEAKTYLKAAFEHIVAAGRDVGELVEFAFAKSGDAVAPYLRRFLSDVHEGRITIQGLTESAKLAV	-0.463
HMQVSIGERVKLARMSAGLNQRQLGKEMGMSAMAISKYETGEVVPNSRVLIQLSQTLHVPLDFFFRS	0.0627
HMGNFFDSAILALKNAIQENYGGNVSQAARSLGISVPTLHTWIKGDRKPSLEKLSPILDALNAKIVL	-0.276
HMDDATIKVNIAAKFLNAGNNLFVDIDTTVLEGRVLLTGLVDTQEVRIDAVRLVWEVEGIREVINEIEIG	-2.1
HMHSRTWTSADGVKTFEGELQSYDAASGKVSVILPNHKRITFKQEKLSADDIAWLEKNGNRP	0.218
HMGTGQTNEKLAVLTNIQKTQEQILLTLGAKNPLVNLKQYRETLAKILSLSGYKNSNEFFLDPM	-0.25
HMYMKLSVKDAALFLSVSPETVYRWVKQEEIPYHTVNDQLRFNRAELLEWATARSLEVSPDLFVP	-1.53
HMNNYFPAYKGSATSIAPALKQMGVNNSYAYRSKIAAVNNITGYRGTPAQNTQMLNLLKQGRLIK	-0.156
HMAVSGRMMVYEYIRQQMREGSLLPGSVLDLPAISHKLGISNTPLRDSLIRLEAEGYLTIYPRSKVVIN	-0.254
HMLHPLLWAVDEPTPVTVRTRPEYVPDVVRWLMQPESQREHDGVVDLRYTVTHRAAFRSRIYVLGTRVTIP	0.17
HMSDKTSLTDDDKALINSMLPDYDKYPSVAKLQAVEIAKSSSKMATLLMLDERYNETVSEALE	-1.14
HMSLDLNENEKTIFDIIQNKKTIRLSELKIEAGLSNKGWDKAMKSLTKQGLAKVVKTEDQLTVKLL	0.0483
HMDDMVLEIGPGIGTMTQYLAEAAGKVVAVEIDRNLLPILQETLADYDNVKVIHADVLSLDLEKLVQEE	-0.868
HMAKSDLNYLDFKSKLEAGEIAKASVIRNEDTFKVTLQNGEVYNVTSPDYEDFRKELLEAGVDIQVSK	0.022
HMSLGTDVVPDFTGKGIKEAKTEFAAYSEGELYIIGEGEKVKEQFPLPGEKVNKNSDLILYV	0.0276
HMKMTFGENLHKLRKIYRLSQEDVASAINLKRSDIAAVEKGDRVLNDEELDKLADFIGIDIVDLL	-0.853
HMATMSIDERILEIRSRAGLTQQEMADRLFVTRQAVSRWERGETVPGIDTLRLIAEAFDVRVDQILEL	-1.11

Sequence	soluble fraction (log2)
HMPRFDINFKVGEVVTIKGGSFDGQQGEISEIDHEHGKIKVMLEVLGRLTPVEVEHTEIEKI	-0.623
HMKELTARQIEILDFITNYEWRHGYWPSIRNIQVQFSYKSTNAVMGHLRALERKGAIERIPGQARTFRIH	0.102
HMFKYLLDTNIVIYVIKKRPIEVMGVFNQNANRMAISAITFSELQHGAEKSVRVQENLNAIEEFTTLIDI	-0.537
HMRHEDLSPAQKAAALVVAVGSENAAQVLRHLSEEEVEILAGEVARLGEVDPDVVDSVMREVYEQMMGH	-0.929
HMEKDKGTILKEARIKKGLTQEQLANNINYTRQYISKWENNISLPKDIQTLKKISNLLSIPLKELLPEDYL	0.0442
HMIDNKIIRSLRQKRNMTLEELAKKANISVSYLSEIELGKKQPSLETINKLSQALNISREGLI	0.22
HMAVGTASNLIGKDIEAYAPIDGSQSSDDTKTISGKVESVHIKDGVVYMNVKDSQSENIIEVEYGALIKVN	0.247
HMYDAEAINKFFDIENWDFGETFYFQELSAYIMNQLSPKLVTILIVPRQTTQAFGSLFEIKSEPDEIFAS	-0.0578
HMSSSTFVGRVAVITIGEARQNSPAEARFKDRHGTTHYVMVEPMEDVVFKQGDKVLLVESAGATFKVIEPA	-0.00194
HMHDPRLPLPGTLLAREFQGRDIVVKVLDNGFEFDGRRYKSLSAIAQEVTGSKWNGFLFFGI	-0.0393
HMAADDGSARAEQLREMYSLISGLDKLDKAIILMWLDERSYDEIAEVTGFTRNNVATRLHRIKSRLARQSN	-1.19
HMHDNPLSAQEQRVLDLIAAGKTSKEIASQLFLSDGTVRNYTTSIFNKLNANNRVEAINIAQENGW	0.123
HMYDEKTLRKAVLDYVRDNDDGRLDLMKIDSYLTSRYGNIDYAALGYNRLSMFISSFPELRRNSNYVTLRK	-0.158
HMTDYVPTIGTKISKDFGSKGYFEGEVVSGPHNVTVEGDNMVVWKVQYEDGDREEMTASEIAHWKA	0.22
HMDRPLRTKEHFARFAGEQVVVKTSSPIDGRSSFTGTLEGMEGDDVIVEVDGSRIAIGYSLIKRAHVVG	0.406
HMINFKVKNVQDVGSRLDKFLVTNIPEFSRSKIQKHIKNGKVMVNGLLKKTGYKLEINDEINILNN	0.198
HMVENATPEEREALNDIAMEAMGMVKDGKPTSAREFVQSQNLDNDQKILLWSLLDAPTRSALKTAEK	0.299
HMKQISQNIHRLRKEKGMSQEQLAQALHVTRQTVSAWERGIAQPSLDVLGQIAQLLGVEPERLLYGE	-0.16
HMRRNLSGEDTIVNRMAQWQYTQEQKNELHKMMDAGMPQEDILSVFYPEIKAEEMHRFLLAFQTAHNSG	-0.0487
HMSYPTAVTQTTLNVRTGPGTQYERLGAFVENTEVIVLTRQPEWIQVRGMSGDKAIIGWVSARYLQMNP	0.18
HMDFSVTIKGTSFPVMVSLKKMKQVRLKVFPSGEIKLSAPVGTPEKWIVEYLNDKMSWIEEKMDLFVQ	-0.395
HMDIEELLSRSTDRLSRQTEIRRLLADAQGRPNISSLARRFKVARRTVIRDLQELIRRGEVPPEIYPK	-0.0624
HMSGRVPTADDIAVGMKVYVPRLGGTGTVVTEPVRDKVVIQVGSLRLHAEVAELLLPDEHGRIQVPR	-0.127
HMAHRYQQIADDLGRRVEAGEFAAGRLLPSEATLSGQYKASRVTVRKALEALRTDGLVESRQGFGWFVAAD	0.262
HMGTTIAMSKLKQVLRWKEEGYSNRKIAQLVGLNKETVNNYISRANADSLSQKELLQLDDFVLDIRLRG	-0.138
HMDREIVEAIVPLEAAGKRFDAALAEMFPEFSRSRLTEWIKAGDALLAGEIVKPKVSVRGGEAVSLSIRV	-0.256
HMKQLVVVPRVVSLSEGKAREDVGDRGLVVDRVEMDTLRTPYENTVTRQEPAADSRVPVGTRVTLWISPGV	-0.0648
